Results published in PMC7430637, “Alternative splicing and allosteric regulation modulate the chromatin binding of UHRF1” (Nucleic Acids Research, 2020).
Residue numbers refer to the chain shown, from its start.

Assays:
Assay in all cases: fluorescence polarisation; FAM-labelled H3(1-15) peptide, recombinant protein titrated; RT; as described (ref. 28)
Settings in all cases: both partners purified
[1] = target: T1, mUHRF1 V1 R-S* (R298A/N299A/T300A/G301A/K302A/S303A), full-length (mouse, UniProt Q8VDF2-1 1-782, R298A | N299A | T300A | G301A | K302A | S303A)
T1 construct: UHRF1, mouse, splicing variant V1, NCBI NP_001104550.1, with six alanine substitutions in Linker 2; source: E. coli BL21(DE3) RIL, purified (HisPur Cobalt-Resin)
T1 sequence (looked up): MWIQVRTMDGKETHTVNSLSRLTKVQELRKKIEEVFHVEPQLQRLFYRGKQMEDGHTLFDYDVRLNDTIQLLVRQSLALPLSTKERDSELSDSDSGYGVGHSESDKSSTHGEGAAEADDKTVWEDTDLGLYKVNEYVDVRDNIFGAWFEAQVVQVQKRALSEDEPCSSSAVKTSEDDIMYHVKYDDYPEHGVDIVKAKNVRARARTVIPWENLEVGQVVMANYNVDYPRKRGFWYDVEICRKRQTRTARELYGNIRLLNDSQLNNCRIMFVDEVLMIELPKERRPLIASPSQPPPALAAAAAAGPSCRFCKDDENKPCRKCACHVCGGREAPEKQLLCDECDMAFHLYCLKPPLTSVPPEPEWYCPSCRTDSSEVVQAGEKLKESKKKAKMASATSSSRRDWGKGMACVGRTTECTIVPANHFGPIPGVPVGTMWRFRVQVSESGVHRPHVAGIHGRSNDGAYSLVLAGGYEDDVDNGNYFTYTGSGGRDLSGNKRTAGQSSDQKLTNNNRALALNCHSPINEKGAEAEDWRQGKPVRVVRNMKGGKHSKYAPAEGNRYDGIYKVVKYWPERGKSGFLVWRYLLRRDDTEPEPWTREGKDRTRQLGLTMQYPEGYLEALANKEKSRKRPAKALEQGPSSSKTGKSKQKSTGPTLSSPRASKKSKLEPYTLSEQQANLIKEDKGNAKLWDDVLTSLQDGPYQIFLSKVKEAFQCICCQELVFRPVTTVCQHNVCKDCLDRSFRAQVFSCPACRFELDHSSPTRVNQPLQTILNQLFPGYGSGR

[2] = target: T2, mUHRF1 V1 mLinker 2 V1* (P293A/P294A/P295A/L297A/R298A/N299A/T300A/G301A/K302A/S303A), full-length (mouse, UniProt Q8VDF2-1 1-782, P293A | P294A | P295A | L297A | R298A | N299A | T300A | G301A | K302A | S303A)
T2 construct: UHRF1, mouse, splicing variant V1, NCBI NP_001104550.1, with ten alanine substitutions in Linker 2; source: E. coli BL21(DE3) RIL, purified (HisPur Cobalt-Resin)
T2 sequence (looked up): T1 sequence (looked up) with P293A, P294A, P295A, L297A

[3] = target: T3, mUHRF1 V1 P-patch/R-S* (P293A/P294A/P295A/R298A/N299A/T300A/G301A/K302A/S303A), full-length (mouse, UniProt Q8VDF2-1 1-782, P293A | P294A | P295A | R298A | N299A | T300A | G301A | K302A | S303A)
T3 construct: UHRF1, mouse, splicing variant V1, NCBI NP_001104550.1, with nine alanine substitutions in Linker 2; source: E. coli BL21(DE3) RIL, purified (HisPur Cobalt-Resin)
T3 sequence (looked up): T1 sequence (looked up) with P293A, P294A, P295A

[4] = target: T4, mTTD-PHD V1 R298* (R298A) (mouse, UniProt Q8VDF2-1 122-380, R298A)
T4 construct: UHRF1, mouse, splicing variant V1 (NCBI NP_001104550.1), TTD-Linker 2-PHD, residues 122-380 as told for wild-type mTTD-PHD V1; source: E. coli BL21(DE3) RIL, purified (HisPur Cobalt-Resin)
T4 sequence (looked up): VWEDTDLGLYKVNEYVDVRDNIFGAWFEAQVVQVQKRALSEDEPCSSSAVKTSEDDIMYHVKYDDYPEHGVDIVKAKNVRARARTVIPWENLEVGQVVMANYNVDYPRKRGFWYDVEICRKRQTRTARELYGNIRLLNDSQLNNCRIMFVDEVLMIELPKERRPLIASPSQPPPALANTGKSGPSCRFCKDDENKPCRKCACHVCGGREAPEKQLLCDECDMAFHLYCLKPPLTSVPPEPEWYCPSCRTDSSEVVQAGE

[5] = target: T5, mTTD-PHD V1 P-patch* (P293A/P294A/P295A) (mouse, UniProt Q8VDF2-1 122-380, P293A | P294A | P295A)
T5 construct: UHRF1, mouse, splicing variant V1 (NCBI NP_001104550.1), TTD-Linker 2-PHD, residues 122-380 as told for wild-type mTTD-PHD V1; source: E. coli BL21(DE3) RIL, purified (HisPur Cobalt-Resin)
T5 sequence (looked up): T4 sequence (looked up) with P172A, P173A, P174A, A177R

B1: FAM-H3(1-15)K9me3 peptide (N-terminally fluorescein-labelled) (peptide)
peptide: ARTKQTARKSTGGKA
modifications: fluorescein (FAM) on the N-terminus; K9 trimethylated
notes: histone H3 aa 1-15; also called FAM-H3K9me3; source: synthetic peptide (Synpeptide Co., Ltd)
Kd [1]: 11.1 ± 0.3 µM | Kd [2]: 12.6 ± 0.5 µM | Kd [3]: 13.9 ± 0.8 µM | Kd [4]: 5.9 ± 0.5 µM | Kd [5]: 10.2 ± 0.3 µM
